Measured values from the supplement of paper PMC12636428.

Each sequence was assayed on Saccharomyces cerevisiae (assay: transcriptional activation domain activity (GFP:mCherry ratio, weighted mean of sorted bins, harmonized to initial dataset scale) (arbitrary fluorescence ratio units); higher = stronger transcriptional activation). Conditions: beta-estradiol 1 µM; induction time 4 h.
Method in brief: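 Sorting into 8 bins by GFP:mCherry ratio followed a 4-hour hold at 30 °C after cultures were diluted 1:5 into SC with 1 uM beta-estradiol. The yeast diploids carried a GFP reporter and had barcoded protein tiles, fused to an estradiol-inducible synthetic transcription factor, integrated at URA3. Barcodes were then sequenced, and tiles with under 50 reads were removed. Activation activity is the read-weighted mean of bin median fluorescence, averaged across barcodes and linearly mapped onto the initial dataset scale.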

Sequence	transcriptional activation domain activity
MSWPDRGYYYCLMVISLLSAKLMHLFSHFTALPLILFLLYLPTFLLLDLLVVF	60500
MSWPFFYLSFSLFFPPLLLDRGLLLLCGFFFLFLYIFLPGILWHLEAWFFLLV	59300
MSWPFPFFFLLFRLFLSLFRGGCFWVQIFVFIPEYLVYSILFSFFFTVIYLFV	40400
MSWQKVHSLFFLYFILPHGGFLFLVIRNIFFFFTYDLVLLWSFKFLLHLYVIF	59800
MSWQRVYRGWVVNGPGFGFFGRYYWIIIIRLAVPRRLLTCSCWCFGWLLFFLI	65700
MSYCIDFPVISSFPAASFYFIFMGTLQDHLPFSLLVYSTLIPFFFFSFLFLSF	41600
MSYFVFPLLLPSLPRVLPRHSICILHFLLHFRTPPSPNLTHSLLIFLFLLLVR	64000
MSYGKRDEDAELGLVKVDRTQVFQEARLFNSSPIQPRKCRILLTKIALLLYTG	24100
MSYIRSCLSFSPFFSFLFLFLPFFFLSFLPFSMCFLCKAFECLFVGGIKHMEH	37400
MSYLQMFTLIEGKFQKQMLFLFFFLLCNLLSFFYIYIYVLLTLIFFTTTSIHL	56700
MTCCLNLFCLLLINLIFFVCACCLLVFSLLAIQNKLPECILLPINIFKMLTIL	52900
MTCFVCNPFLLCAKVFVFFSVSWWVVLSSLFWGCFLMYVFLLFPIKMFLRFCS	61000
MTDRCRVRCTKLIIIIKGIFFWVSLVSLLFFFLLILSAFSFFLLLLLYYLFTI	46200
MTEDEGKPRRKRARLACTACNARRVKCNVTESRPCHNCIAGNVLCETVPSRRG	36100
MTEPMLFFVLYFIRLLPFSFIFFHFLSFSLSILFFVILFSSSFHPFSSSFFFI	53400
MTEQAPTIRTAEKDTEGPAKRRRRPALSCVECRSRKVRCDRGKPCRACTRVRS	26200
MTEQPPAIRIADKDGDGPAKRRRRPALSCAECRNRKVRCDRREPCGSCTRLRS	42400
MTEREPDNEQQPRKRIAVACGRCRKRKIRCSGDPGNGEPCTNCRNANAEPCQF	38700
MTESHRPNQSLGLDDAAGGRKPAKRKAHRKSRTGCRQCRASRVKCDENKPSCS	41000
MTFLHLYFSLSSCLLKTCLSFFVPTPQLLHFTSCIFICFIGTGVFFLYFPFLF	65700
MTFLPFSLFAFLFRCLLFFLAIFRLRYALFLFLFFSFLYLYPFYLHILHIVAY	52600

Sequence	transcriptional activation domain activity
MTFVSEALITHRIDGGDIGVVNIFSKNKWRSKVYVRILVQICMRWVMMAIYLN	55700
MTGFSFLLMTFFFFLFFLFFFFISLFLLFFPLFSSHSLFFRLLAICSGLWCSG	60000
MTGIFFFFFLLFLFLQLGIGTVFERLLSFQFPNYILFPILPPLHPSSPPFFTY	38600
MTGRHLWGIGVLFLPLLFFLLDFPFFSFSFLLMCLCEILSIFFWLHFSLGREG	44900
MTGTTLLPPPFISNDVTNSADSTNIKPSPSSSVDNLNDYLTDINSLAWGVNSL	67600
MTHALNIVTYLYRQHLLEDEHFLDWILRNLGPCPLERLLVWLLLVSLYWRDLI	49800
MTHILGYIHRSCYFLFLRSFLNFDISCCWITLSWLLCRSILYYCRPMVKILSS	66300
MTIDVIHVTYFTFFFFIIVLIYAHLVIPYILDVELLTYFLNDAFKWNMLNMLF	50200
MTILVILSILCLFQSYMGGMYSLDAHWVDIGLLRIYCNTLCIKMCQILMQFLL	22700
MTISSPYCLFRCVAYGPWQTLSVLFCFFFFLLLFLSPSLHHLFYFLSLDFFSY	55500
MTKPIIIKINHIFALRHYYLPYFHPYILFVFFSSLFTLRGTMWLILLFFGSFA	50300
MTLASLAARRSNCMKRRVGCVVVSQPDRRVISTGYNGTPRGIRNCGEGGCPRC	39100
MTLCTFFGCLLTAYSPLLSIFFLYIAPNAQYVLLMVASAFFCLLALLLSSVIW	55000
MTLGLMAFSEYNFADYACLFLFSSFLLFYLIFPIFSFLLLCVYFFFVSFHLYA	27600
MTLITIIDLESFIFEDCIDLILFSQFLDSFQHSAVLTAYINWYTNADWWRSIV	66900
MTLLFMWLIVRYILCYVSYYRRYAHRVGTQLPPTYPSFIPKYGTALSYLLAPA	58700
MTLLLLLLLLLFSYNFTYIYLFFLLLSFHLCVSLYTTFTLNFIFLYTSLYILD	74200
MTLLVGYLGVFFLLFSSPSLLEFFFFVTYRVFVVFFFSSSFFFLGYPVFFFFF	36600
MTLTFWFFLPLLDILSGLKFEFLPMLVFYFYFFPFASFCRFEALDIWTWILII	48100
MTLTLHPCAQTQFLTAFYCIYCHLTWRCSLLILINMGLGLIQRYVFPLLTFLF	43400
MTLVVMMILPPLASLDCFLLSFFFSLLLSPTFPLVLFFSVYKFFHFSTFPFFV	54800

Sequence	transcriptional activation domain activity
MTMRKSFEYSFSREIYFLFFFLFFSFLFFLSFLSFSLSLFFFFPLHPGLFRLV	54400
MTNFSVALNVHTQIAYHNAEALRLKCMYNASSLLAKLPPHVLALIFLNHANWF	36200
MTNLFSASFLSSSSSLSFFFSLFFLLFQRYLLEERPLTIMAFYLLPFFFSLSL	29800
MTNQPTTQDGPSPVKHRACDECRSRKLACSKEPDGCSRCKKEGIVCHYSAQKQ	28400
MTNRLHIICHICVFYGYVLMFPAITSYYFILLCILILILHLFIFILAHFYKDR	37300
MTNRLHIVCHICVFYGYILMFQAITSYHYFILLCILILILHLLTFILVYLYKD	38400
MTNRQRVGHKKSRHGCIRCKARRVKCDEQRPCSNCVRHRTPCSLSQEPLAAAL	45200
MTPRAQDSSSDDKEDKKDTDRAAIRAAQNRKAQRLYRQRKEARVRELEATVAK	78900
MTQLYPFFLLFFAGLTMLLLLNHTFLPRVSVKSVKSLFRCNVRGFGTFFLFFL	43800
MTRAFTIMINLITIVLSFLMSQSFTSYVCHILLCPLANLRPQLLYIWWVSPVL	54200
MTRMLPLSFELFKFIVNLCLALVFTSWLFSWSKMLLILGLICVCRDFLSLVIV	31700
MTSPPLIKEEQTSSDESQIQQQSKTRRPKTRASVACTSCRDRRIRCVVPSGKK	55700
MTSPPPPSITVSHLALVPFFRTPVSAYSLLFLLFFRLGLCLSCWLFLLFSFLF	65800
MTSRHSFKAIKVLVICCVFLFFLLLKRKDHFNSCCLIFHIKIGLIDVLIFFYF	41900
MTSRLHIICHICVFYGYILMFQAITSYHYFILLCILILILYLLTFILAHFYKY	36800
MTSWPLLPPYSIHAMIKMIAFSSLFCSFFSLHLFFYYYLPLYIAVFIFFIVTH	32400
MTSYVHQALVRFIGVTLTYQEYKEKLGRSFYLRNLAENTTMLGFLCWVNILHF	33800
MTTDNTQKPTISLVEKVDLVFRLLAIAPLRHAIHFTRSLFIAYWRGLPLRLHI	70300
MTTLYISFLFFLFCASFTFCTIFFFFFFFFTQWLYSSPLHLSLSLSLLFLFLI	65100
